Laboratory results taken from article PMC7227406, “Protein Phosphatases Type 2C Group A Interact with and Regulate the Stability of ACC Synthase 7 in Arabidopsis” (Cells, 2020).

T1: GST–ACS7 (Arabidopsis thaliana, UniProt Q9STR4 1-447)
T1 construct: ACS7, 1-aminocyclopropane-1-carboxylate synthase 7, Arabidopsis thaliana; Vector pDEST15; also called recombinant GST–ACS7; N-tagged GST–ACS7; source: E. coli BL21-CodonPlus (DE3)-RIL, purified (Glutathione-Sepharose 4B); not shown: GST, N-terminal, kept
T1 sequence (looked up): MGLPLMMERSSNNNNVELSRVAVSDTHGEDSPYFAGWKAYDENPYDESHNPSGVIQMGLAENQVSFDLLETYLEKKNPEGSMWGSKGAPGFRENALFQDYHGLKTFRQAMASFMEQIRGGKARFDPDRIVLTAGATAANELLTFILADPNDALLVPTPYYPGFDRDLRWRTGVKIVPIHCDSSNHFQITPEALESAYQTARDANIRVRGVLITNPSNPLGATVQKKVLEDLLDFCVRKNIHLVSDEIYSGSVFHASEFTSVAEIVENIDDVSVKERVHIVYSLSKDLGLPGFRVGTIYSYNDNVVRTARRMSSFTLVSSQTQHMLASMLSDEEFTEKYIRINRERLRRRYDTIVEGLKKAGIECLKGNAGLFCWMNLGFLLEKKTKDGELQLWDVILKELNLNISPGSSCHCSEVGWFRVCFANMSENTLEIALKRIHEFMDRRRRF


Molecular target: T1, GST–ACS7
Experiment: pull-down; GST–ACS7 pre-coupled to Glutathione-Sepharose 4B, preincubated with 1 mg/mL BSA; His-tagged ABI1 or ABI2 added in EBC buffer (100 mM NaCl, 0.5% Nonidet P-40, 100 mM NaF, 200 μM sodium orthovanadate, 50 mM Tris-HCl pH 8.0), 1 h, room temperature; washes with NENT buffer at 100/200/300 mM NaCl; immunoblot with anti-GST and anti-His
Conditions: both partners purified

Binder | binding result
His–ABI1 (enzyme, Arabidopsis thaliana, UniProt P49597 1-434, looked up, ABI1, group A protein phosphatase type 2C, Arabidopsis thaliana; Vector pDEST17; also called His-tagged ABI1; source: E. coli BL21-CodonPlus (DE3)-RIL, purified (Ni-Sepharose 6 Fast Flow)) MEEVSPAIAGPFRPFSETQMDFTGIRLGKGYCNNQYSNQDSENGDLMVSLPETSSCSVSGSHGSESRKVLISRINSPNLNMKESAAADIVVVDISAGDEINGSDITSEKKMISRTESRSLFEFKSVPLYGFTSICGRRPEMEDAVSTIPRFLQSSSGSMLDGRFDPQSAAHFFGVYDGHGGSQVANYCRERMHLALAEEIAKEKPMLCDGDTWLEKWKKALFNSFLRVDSEIESVAPETVGSTSVVAVVFPSHIFVANCGDSRAVLCRGKTALPLSVDHKPDREDEAARIEAAGGKVIQWNGARVFGVLAMSRSIGDRYLKPSIIPDPEVTAVKRVKEDDCLILASDGVWDVMTDEEACEMARKRILLWHKKNAVAGDASLLADERRKEGKDPAAMSAAEYLSKLAIQRGSKDNISVVVVDLKPRRKLKSKPLN | binds
His–ABI2 (enzyme, Arabidopsis thaliana, UniProt O04719 1-423, looked up, ABI2, group A protein phosphatase type 2C, Arabidopsis thaliana; Vector pDEST17; also called His-tagged ABI2; source: E. coli BL21-CodonPlus (DE3)-RIL, purified (Ni-Sepharose 6 Fast Flow)) MDEVSPAVAVPFRPFTDPHAGLRGYCNGESRVTLPESSCSGDGAMKDSSFEINTRQDSLTSSSSAMAGVDISAGDEINGSDEFDPRSMNQSEKKVLSRTESRSLFEFKCVPLYGVTSICGRRPEMEDSVSTIPRFLQVSSSSLLDGRVTNGFNPHLSAHFFGVYDGHGGSQVANYCRERMHLALTEEIVKEKPEFCDGDTWQEKWKKALFNSFMRVDSEIETVAHAPETVGSTSVVAVVFPTHIFVANCGDSRAVLCRGKTPLALSVDHKPDRDDEAARIEAAGGKVIRWNGARVFGVLAMSRSIGDRYLKPSVIPDPEVTSVRRVKEDDCLILASDGLWDVMTNEEVCDLARKRILLWHKKNAMAGEALLPAEKRGEGKDPAAMSAAEYLSKMALQKGSKDNISVVVVDLKGIRKFKSKSLN | binds
